# According to patent US20160137746A1, “METHODS FOR TREATING HIGH CARDIOVASCULAR RISK PATIENTS WITH HYPERCHOLESTEROLEMIA” (Sanofi Biotechnology, priority 2014, published 2016):
# Test system: high cardiovascular risk patients with hypercholesterolemia
# Test: ODYSSEY COMBO II: safety (TEAEs, adjudicated CV events, laboratory parameters, low LDL-C)
# [1] = alirocumab patients with two consecutive LDL-C ≦25 mg/dL (n = 105), number (%) of patients
# [2] = safety population at 52 weeks, all patients, number (%) of patients
# [3] = treatment period, safety population
# Procedure: Safety assessments during both studies were as follows. Safety was assessed through adverse event (AE) reporting (including adjudicated cardiovascular events), laboratory analyses, and vital signs measurement. Since the LDL-C-lowering effects of PCSK9 inhibition on top of a statin are unknown, a number of AEs were defined as being of special interest and were monitored, including alanine aminotransferase abnormalities, allergic events, hemolytic anemia, pregnancy, overdose with study drug, neurologic events, ophthalmic events, and local injection site reactions.
# Safety Analyses were as follows. AEs (including adjudicated cardiovascular events), laboratory parameters, and vital signs were reported descriptively, based on the safety population (all randomized patients who received at least 1 dose or partial dose of study treatment). The safety analysis focused on the treatment-emergent AE period defined as the time from the first double-blind dose to the last double-blind dose of the investigational product +70 days (10 weeks).
# The safety population included all randomized patients who received at least one dose or part of a dose of the double-blind IMP.
# Safety analyses were descriptive, performed on the safety population according to treatment actually received. For analysis of TEAE and PCSA, the safety analysis focused on the TEAE period defined as the time from the first dose of double-blind IMP administration (capsule or injection, whichever comes first) up to 70 days after the last double-blind injection.
substance,measurement,setting,value
"Alirocumab: human anti-PCSK9 antibody; HCVR SEQ ID NO:1, LCVR SEQ ID NO:6; CDRs SEQ ID NOs 2/3/4/7/8/10",Laboratory parameters: Blood glucose increased,[1],1 (1.0)
same,Laboratory parameters: Hemoglobin decreased,[1],3 (2.9)
same,Patients experiencing any TEAE,[1],72 (68.6)
same,TEAE preferred term: Accidental overdose,[1],6 (5.7)
same,TEAE preferred term: Angina pectoris,[1],2 (1.9)
same,TEAE preferred term: Arthralgia,[1],5 (4.8)
same,TEAE preferred term: Dizziness,[1],5 (4.8)
same,TEAE preferred term: Headache,[1],4 (3.8)
same,TEAE preferred term: Hypertension,[1],3 (2.9)
same,TEAE preferred term: Influenza,[1],3 (2.9)
same,TEAE preferred term: Myalgia,[1],4 (3.8)
same,TEAE preferred term: Nasopharyngitis,[1],10 (9.5)
same,TEAE preferred term: Upper respiratory tract infection,[1],4 (3.8)
same,TEAE system organ class: Blood and lymphatic system disorders,[1],4 (3.8)
same,TEAE system organ class: Cardiac disorders,[1],14 (13.3)
same,TEAE system organ class: Eye disorders,[1],2 (1.9)
same,TEAE system organ class: Gastrointestinal disorders,[1],19 (18.1)
same,TEAE system organ class: General disorders and administration site conditions,[1],10 (9.5)
same,TEAE system organ class: Infections and infestations,[1],35 (33.3)
same,"TEAE system organ class: Injury, poisoning, and procedural complications",[1],10 (9.5)
same,TEAE system organ class: Investigations,[1],7 (6.7)
same,TEAE system organ class: Metabolism and nutrition disorders,[1],6 (5.7)
same,TEAE system organ class: Musculoskeletal and connective tissue disorders,[1],19 (18.1)
same,"TEAE system organ class: Neoplasms, benign, malignant and unspecified (including cysts and polyps)",[1],5 (4.8)
same,TEAE system organ class: Nervous system disorders,[1],17 (16.2)
same,TEAE system organ class: Psychiatric disorders,[1],2 (1.9)
same,TEAE system organ class: Renal and urinary disorders,[1],7 (6.7)
same,TEAE system organ class: Reproductive system and breast disorders,[1],4 (3.8)
same,"TEAE system organ class: Respiratory, thoracic, and mediastinal disorders",[1],11 (10.5)
same,TEAE system organ class: Skin and subcutaneous tissue disorders,[1],10 (9.5)
same,TEAE system organ class: Vascular disorders,[1],4 (3.8)
same,Adjudicated cardiovascular events,in vivo,4.8%
same,SOC gastrointestinal disorders,in vivo,15.0%
same,SOC musculoskeletal and connective tissue disorders,in vivo,19.6%
same,Safety in patients with two consecutive calculated LDL-C <25 mg/dL,in vivo,No particular safety concern
same,Treatment-emergent local injection site reactions,in vivo,2.5%
same,Patients who experienced at least one TEAE,mean 58 weeks' follow-up,71.2%
same,Serious adverse event,mean 58 weeks' follow-up,18.8%
same,TEAE leading to death,mean 58 weeks' follow-up,2 (0.4%) n (%)
same,TEAEs leading to treatment discontinuation,mean 58 weeks' follow-up,7.5%
same,Tolerability,overall results,well-tolerated
same,"Time to the first calculated LDL-C value <15 mg/dL, mean",safety population,15.07 weeks
same,"Time to the first calculated LDL-C value <15 mg/dL, median",safety population,9.14 weeks
same,"Time to the first calculated LDL-C value <25 mg/dL, mean",safety population,12.56 weeks
same,"Time to the first calculated LDL-C value <25 mg/dL, median",safety population,5.14 weeks
same,Laboratory parameters: Blood glucose increased,[2],1 (0.2)
same,Laboratory parameters: Hemoglobin decreased,[2],4 (0.8)
same,Patients experiencing any TEAE,[2],341 (71.2)
same,TEAE preferred term: Accidental overdose,[2],30 (6.3)
same,TEAE preferred term: Angina pectoris,[2],12 (2.5)
same,TEAE preferred term: Arthralgia,[2],19 (4.0)
same,TEAE preferred term: Dizziness,[2],23 (4.8)
same,TEAE preferred term: Headache,[2],21 (4.4)
same,TEAE preferred term: Hypertension,[2],18 (3.8)
same,TEAE preferred term: Influenza,[2],17 (3.5)
same,TEAE preferred term: Myalgia,[2],21 (4.4)
same,TEAE preferred term: Nasopharyngitis,[2],18 (3.8)
same,TEAE system organ class: Blood and lymphatic system disorders,[2],11 (2.3)
same,TEAE system organ class: Cardiac disorders,[2],60 (12.5)
same,TEAE system organ class: Eye disorders,[2],23 (4.8)
same,TEAE system organ class: Gastrointestinal disorders,[2],72 (15.0)
same,TEAE system organ class: General disorders and administration site conditions,[2],56 (11.7)
same,"TEAE system organ class: Injury, poisoning, and procedural complications",[2],61 (12.7)
same,TEAE system organ class: Investigations,[2],35 (7.3)
same,TEAE system organ class: Metabolism and nutrition disorders,[2],27 (5.6)
same,TEAE system organ class: Musculoskeletal and connective tissue disorders,[2],94 (19.6)
same,"TEAE system organ class: Neoplasms, benign, malignant and unspecified (including cysts and polyps)",[2],15 (3.1)
same,TEAE system organ class: Nervous system disorders,[2],77 (16.1)
same,TEAE system organ class: Psychiatric disorders,[2],21 (4.4)
same,TEAE system organ class: Renal and urinary disorders,[2],21 (4.4)
same,TEAE system organ class: Reproductive system and breast disorders,[2],12 (2.7)
same,"TEAE system organ class: Respiratory, thoracic, and mediastinal disorders",[2],45 (9.4)
same,TEAE system organ class: Skin and subcutaneous tissue disorders,[2],35 (7.3)
same,TEAE system organ class: Vascular disorders,[2],33 (6.9)
same,Patients with 2 consecutive calculated LDL-C value <15 mg/dL,[3],(6.7%)
same,Patients with 2 consecutive calculated LDL-C value <25 mg/dL,[3],(22.8%)
same,Patients with 2 consecutive calculated LDL-C value <25 mg/dL,"treatment period, safety population, listed as alirocumab",22.8%
